Measured values from US20250304643A1 (BAINAN BIOTECH, published 2025).
*1 amine or outer side, *2 acyl side, *3 side chain or, on linkers, in order; H or OH if unused. Where no end group is shown, it is not given here. Side-chain parts run from the residue outwards. [ ]: non-standard residue; d: D form. The star is where a group is joined. C16 diacid = O=C(O)CCCCCCCCCCCCCCC(=O)*; γGlu = O=C(O)[C@H](CCC(=O)[*:2])N[*:1]; Palmitoyl = CCCCCCCCCCCCCCCC(=O)*; Decanoyl = CCCCCCCCCC(=O)*; Aib = CC(C)(N)C(=O)O

T1: human glucagon-like peptide-2 receptor (human, UniProt O95838 1-553)
T1 sequence (looked up): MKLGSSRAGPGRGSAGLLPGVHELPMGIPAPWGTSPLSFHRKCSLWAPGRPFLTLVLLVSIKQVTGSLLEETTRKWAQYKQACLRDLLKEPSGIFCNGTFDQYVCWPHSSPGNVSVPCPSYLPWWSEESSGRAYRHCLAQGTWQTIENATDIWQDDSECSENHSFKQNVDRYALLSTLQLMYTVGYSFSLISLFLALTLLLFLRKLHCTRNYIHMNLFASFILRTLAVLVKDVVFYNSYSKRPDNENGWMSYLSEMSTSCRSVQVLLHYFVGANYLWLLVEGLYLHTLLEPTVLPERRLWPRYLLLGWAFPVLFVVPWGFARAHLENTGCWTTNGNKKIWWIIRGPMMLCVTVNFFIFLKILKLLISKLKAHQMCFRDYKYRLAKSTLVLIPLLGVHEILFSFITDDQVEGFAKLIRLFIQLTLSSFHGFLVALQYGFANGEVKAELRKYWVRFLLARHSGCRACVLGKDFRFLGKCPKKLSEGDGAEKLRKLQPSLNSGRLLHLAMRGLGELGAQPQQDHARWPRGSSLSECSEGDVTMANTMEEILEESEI

T2: human glucose-dependent insulinotropic polypeptide receptor (human, UniProt P48546 22-466)
T2 sequence (looked up): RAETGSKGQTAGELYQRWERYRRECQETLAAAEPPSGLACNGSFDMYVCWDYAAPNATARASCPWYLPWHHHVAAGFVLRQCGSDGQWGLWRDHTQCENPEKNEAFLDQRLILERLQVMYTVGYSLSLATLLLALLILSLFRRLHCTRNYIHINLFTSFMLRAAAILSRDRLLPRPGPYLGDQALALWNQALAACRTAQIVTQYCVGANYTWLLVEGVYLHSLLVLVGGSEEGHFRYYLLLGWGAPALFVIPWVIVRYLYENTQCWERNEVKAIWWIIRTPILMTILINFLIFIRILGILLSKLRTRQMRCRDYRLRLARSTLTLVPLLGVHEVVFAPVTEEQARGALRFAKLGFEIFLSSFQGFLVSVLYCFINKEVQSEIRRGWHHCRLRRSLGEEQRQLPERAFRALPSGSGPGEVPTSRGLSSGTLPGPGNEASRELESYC


Assays:
[1] = target: T1, human glucagon-like peptide-2 receptor; assay: cell-based or functional assay
[2] = target: T2, human glucose-dependent insulinotropic …; assay: cell-based or functional assay

Efficacy GLP-2R [1] [%]	Efficacy GIPR [2] [%]	EC50 (nM) GIPR [2] [nM]	logEC50 GLP-2R [1]	Binder
73	–	–	–	{C16 diacid}-H[Aib]EGTFISDYST[Aib]LDNLAAKDFINWLIQTKITKNDWKHNITQ-OH [Compound no. 43]
–	91	–	–	Palmitoyl-HADGTFISDYSTILDNLAAKDFINWLIQTKITK [Compound no. 45]
91	108	–	–	Palmitoyl-H[Aib]DGTFISDYSTILD[Aib]LAARDFINWLIQTKITK-OH (SMILES CCCCCCCCCCCCCCCC(=O)N[C@@H](Cc1c[nH]cn1)C(=O)NC(C)(C)C(=O)N[C@@H](CC(=O)O)C(=O)NCC(=O)N[C@H](C(=O)N[C@@H](Cc1ccccc1)C(=O)N[C@H](C(=O)N[C@@H](CO)C(=O)N[C@@H](CC(=O)O)C(=O)N[C@@H](Cc1ccc(O)cc1)C(=O)N[C@@H](CO)C(=O)N[C@H](C(=O)N[C@H](C(=O)N[C@@H](CC(C)C)C(=O)N[C@@H](CC(=O)O)C(=O)NC(C)(C)C(=O)N[C@@H](CC(C)C)C(=O)N[C@@H](C)C(=O)N[C@@H](C)C(=O)N[C@@H](CCCNC(=N)N)C(=O)N[C@@H](CC(=O)O)C(=O)N[C@@H](Cc1ccccc1)C(=O)N[C@H](C(=O)N[C@@H](CC(N)=O)C(=O)N[C@@H](Cc1c[nH]c2ccccc12)C(=O)N[C@@H](CC(C)C)C(=O)N[C@H](C(=O)N[C@@H](CCC(N)=O)C(=O)N[C@H](C(=O)N[C@@H](CCCCN)C(=O)N[C@H](C(=O)N[C@H](C(=O)N[C@@H](CCCCN)C(=O)O)[C@@H](C)O)[C@@H](C)CC)[C@@H](C)O)[C@@H](C)CC)[C@@H](C)CC)[C@@H](C)CC)[C@@H](C)O)[C@@H](C)CC)[C@@H](C)O) [Compound no. 6]
81	–	–	–	H[Aib]DGTFISDYK([γGlu-Decanoyl])T[Aib]LDNLAARDFINWLIQTKITD-OH (N-terminus assumed; SMILES CCCCCCCCCC(=O)N[C@@H](CCC(=O)NCCCC[C@H](NC(=O)[C@H](Cc1ccc(O)cc1)NC(=O)[C@H](CC(=O)O)NC(=O)[C@H](CO)NC(=O)[C@@H](NC(=O)[C@H](Cc1ccccc1)NC(=O)[C@@H](NC(=O)CNC(=O)[C@H](CC(=O)O)NC(=O)C(C)(C)NC(=O)[C@@H](N)Cc1c[nH]cn1)[C@@H](C)O)[C@@H](C)CC)C(=O)N[C@H](C(=O)NC(C)(C)C(=O)N[C@@H](CC(C)C)C(=O)N[C@@H](CC(=O)O)C(=O)N[C@@H](CC(N)=O)C(=O)N[C@@H](CC(C)C)C(=O)N[C@@H](C)C(=O)N[C@@H](C)C(=O)N[C@@H](CCCNC(=N)N)C(=O)N[C@@H](CC(=O)O)C(=O)N[C@@H](Cc1ccccc1)C(=O)N[C@H](C(=O)N[C@@H](CC(N)=O)C(=O)N[C@@H](Cc1c[nH]c2ccccc12)C(=O)N[C@@H](CC(C)C)C(=O)N[C@H](C(=O)N[C@@H](CCC(N)=O)C(=O)N[C@H](C(=O)N[C@@H](CCCCN)C(=O)N[C@H](C(=O)N[C@H](C(=O)N[C@@H](CC(=O)O)C(=O)O)[C@@H](C)O)[C@@H](C)CC)[C@@H](C)O)[C@@H](C)CC)[C@@H](C)CC)[C@@H](C)O)C(=O)O) [Compound no. 30]
91	110	–	–	H-H[Aib]DGK([γGlu-Palmitoyl])FISDYSTILDNLAARDFINWLIQTKITK-OH (SMILES CCCCCCCCCCCCCCCC(=O)N[C@@H](CCC(=O)NCCCC[C@H](NC(=O)CNC(=O)[C@H](CC(=O)O)NC(=O)C(C)(C)NC(=O)[C@@H](N)Cc1c[nH]cn1)C(=O)N[C@@H](Cc1ccccc1)C(=O)N[C@H](C(=O)N[C@@H](CO)C(=O)N[C@@H](CC(=O)O)C(=O)N[C@@H](Cc1ccc(O)cc1)C(=O)N[C@@H](CO)C(=O)N[C@H](C(=O)N[C@H](C(=O)N[C@@H](CC(C)C)C(=O)N[C@@H](CC(=O)O)C(=O)N[C@@H](CC(N)=O)C(=O)N[C@@H](CC(C)C)C(=O)N[C@@H](C)C(=O)N[C@@H](C)C(=O)N[C@@H](CCCNC(=N)N)C(=O)N[C@@H](CC(=O)O)C(=O)N[C@@H](Cc1ccccc1)C(=O)N[C@H](C(=O)N[C@@H](CC(N)=O)C(=O)N[C@@H](Cc1c[nH]c2ccccc12)C(=O)N[C@@H](CC(C)C)C(=O)N[C@H](C(=O)N[C@@H](CCC(N)=O)C(=O)N[C@H](C(=O)N[C@@H](CCCCN)C(=O)N[C@H](C(=O)N[C@H](C(=O)N[C@@H](CCCCN)C(=O)O)[C@@H](C)O)[C@@H](C)CC)[C@@H](C)O)[C@@H](C)CC)[C@@H](C)CC)[C@@H](C)CC)[C@@H](C)O)[C@@H](C)CC)C(=O)O) [Compound no. 9]
–	95	–	–	H[Aib]DGTFISDYK([γGlu-Palmitoyl])T[Aib]LDNLAARDFINWLIQTKITKNDWKHNITQ-OH [Compound no. 37]
–	92	1	–	Ac-H[Aib]DGTFISDYSK([γGlu-Palmitoyl])[Aib]LDNLAARDFINWLIQTKITK-OH (SMILES CCCCCCCCCCCCCCCC(=O)N[C@@H](CCC(=O)NCCCC[C@H](NC(=O)[C@H](CO)NC(=O)[C@H](Cc1ccc(O)cc1)NC(=O)[C@H](CC(=O)O)NC(=O)[C@H](CO)NC(=O)[C@@H](NC(=O)[C@H](Cc1ccccc1)NC(=O)[C@@H](NC(=O)CNC(=O)[C@H](CC(=O)O)NC(=O)C(C)(C)NC(=O)[C@H](Cc1c[nH]cn1)NC(C)=O)[C@@H](C)O)[C@@H](C)CC)C(=O)NC(C)(C)C(=O)N[C@@H](CC(C)C)C(=O)N[C@@H](CC(=O)O)C(=O)N[C@@H](CC(N)=O)C(=O)N[C@@H](CC(C)C)C(=O)N[C@@H](C)C(=O)N[C@@H](C)C(=O)N[C@@H](CCCNC(=N)N)C(=O)N[C@@H](CC(=O)O)C(=O)N[C@@H](Cc1ccccc1)C(=O)N[C@H](C(=O)N[C@@H](CC(N)=O)C(=O)N[C@@H](Cc1c[nH]c2ccccc12)C(=O)N[C@@H](CC(C)C)C(=O)N[C@H](C(=O)N[C@@H](CCC(N)=O)C(=O)N[C@H](C(=O)N[C@@H](CCCCN)C(=O)N[C@H](C(=O)N[C@H](C(=O)N[C@@H](CCCCN)C(=O)O)[C@@H](C)O)[C@@H](C)CC)[C@@H](C)O)[C@@H](C)CC)[C@@H](C)CC)C(=O)O) [Compound no. 36]
109	111	–	9	Palmitoyl-H[Aib]DGTFISDYST[Aib]LDNLAARDFINWLIQTKITK-OH (SMILES CCCCCCCCCCCCCCCC(=O)N[C@@H](Cc1c[nH]cn1)C(=O)NC(C)(C)C(=O)N[C@@H](CC(=O)O)C(=O)NCC(=O)N[C@H](C(=O)N[C@@H](Cc1ccccc1)C(=O)N[C@H](C(=O)N[C@@H](CO)C(=O)N[C@@H](CC(=O)O)C(=O)N[C@@H](Cc1ccc(O)cc1)C(=O)N[C@@H](CO)C(=O)N[C@H](C(=O)NC(C)(C)C(=O)N[C@@H](CC(C)C)C(=O)N[C@@H](CC(=O)O)C(=O)N[C@@H](CC(N)=O)C(=O)N[C@@H](CC(C)C)C(=O)N[C@@H](C)C(=O)N[C@@H](C)C(=O)N[C@@H](CCCNC(=N)N)C(=O)N[C@@H](CC(=O)O)C(=O)N[C@@H](Cc1ccccc1)C(=O)N[C@H](C(=O)N[C@@H](CC(N)=O)C(=O)N[C@@H](Cc1c[nH]c2ccccc12)C(=O)N[C@@H](CC(C)C)C(=O)N[C@H](C(=O)N[C@@H](CCC(N)=O)C(=O)N[C@H](C(=O)N[C@@H](CCCCN)C(=O)N[C@H](C(=O)N[C@H](C(=O)N[C@@H](CCCCN)C(=O)O)[C@@H](C)O)[C@@H](C)CC)[C@@H](C)O)[C@@H](C)CC)[C@@H](C)CC)[C@@H](C)O)[C@@H](C)CC)[C@@H](C)O) [Compound no. 5]
–	96	–	–	Palmitoyl-HADGTFISDYSTILDNLAARDFINWLIQTKITD [Compound no. 1]
